B1: Protein piccolo, residues 1058 to 1114; numbered along this chain, Q9Y6V0 (parent)
chain: TCPLCKTELNIGSKDPPNFNTCTECKNQVCNLCGFNPTPHLTEIQEWLCLNCQTQRA
B2: Chromodomain-helicase-DNA-binding protein 4, residues 444 to 496; numbered along this chain, Q14839 (parent)
chain: EDDHHMEFCRVCKDGGELLCCDTCPSSYHIHCLNPPLPEIPNGEWLCPRCTCP

Variants of: B1
Test: abundance fitness (aPCA) (normalised: wild type 0, dead -1); higher = more abundant; growth selection in yeast, the domain comes from the species named
Settings: Homo sapiens

Abundance fitness: each site, then its substitutions
T7: R -0.056; C -0.56; H -0.168; K 0.043; Q 0.019; L -0.15; Y -0.34; S -0.09; N -0.007; A -0.063; E 0.094; W -0.797; G -0.011; I -0.31; M -0.301; F -0.342
L4: T -0.051; R -0.054; G 0.067; C -0.043; S 0.006; P -0.693; F -0.376; M 0.075; K -0.569; I -0.048; A 0.087; H 0.054; N 0.036; Y -0.088; V -0.308; Q 0.028; W -0.576; E -0.288; D 0.17
G12: C 0.077; A -0.361
C2: G -0.877; D -0.536; Y -1.15; R -0.991; F -1.11; V -1.11; W -0.904; M -0.983; E -0.557; H -0.834; S -0.687; A -1.3; K -0.831; N -0.156; T -0.705; P -1.1; I -1.23
T1: R -0.21; L -0.078; A -0.534; V -0.202; M -0.031; E -0.142; K -0.424; P -0.239; S -0.129; I -0.024; G -0.205; W -0.516
E8: R -0.206; Y -0.679; G -0.052; P -0.09; H -0.479; I -0.153; D -0.14; W -0.517; N -0.488; A -0.244; M -0.011; F -0.431; L -0.252; C -0.56; Q -0.178
L9: E -0.11; A 0.032; H -0.231; R -0.156; I -0.098; Y -0.181; Q -0.128; F 0.007; D -0.138; C -0.201; T -0.081; K 0.026; P -0.197; N -0.174; G -0.047; S -0.042; W -0.419; M 0.145; V -0.056
C5: A -0.844; E -0.812; G -0.685; Q -0.689; D -0.606; M -0.927; H -0.142; S -0.68; Y -0.947; N -0.693; K -0.63; P -1.01; R -0.906; I -1.06; F -1.11; L -1.17; T -0.872; W -0.96
P3: V -0.294; T -0.016; E -0.32; K -0.248; W -0.984; I -0.073; G -0.137; S -0.078; C 0.148; Q -0.506; Y -0.142; F -0.216; L -0.282; R -0.175; D 0.095; A -0.245
K6: T -0.107; S 0.059; V -0.215; R -0.283; P 0.104; A -0.097; W -0.795; H -0.142; N 0.071; D -0.298; E -0.069; G -0.507; C -0.329; Y -0.18; Q -0.02; I -0.087
N10: T 0.062; V -0.211; A 0.041; L -0.204; W -0.676; R -0.274; H -0.608; E -0.022; D -0.245; S -0.08; Q -0.005; K 0.2; M 0.042; F -0.103
I11: C -0.133; E 0.172; Y 0.086; V -0.046; M 0.039; F -0.063; L -0.22; Q 0.065; P 0.11; S -0.026; K -0.104; W -0.333; R -0.112; T -0.099; H 0.054; N 0.037; A -0.153

Variants of: B2
Test: as above
Settings: Homo sapiens

Abundance fitness of substitutions, site by site:
P53: H 0.616; S -0.455
C52: H 0.096; M 0.433; F -0.358; I -0.189; V 0.032; E 0.489; W -0.033; Q 0.145; D -0.218; Y -0.019; P -0.667; T 0.288; N -0.161; G 0.294; L 0; S -0.002
C50: T -0.78; E -0.708; V -0.791; N -0.46; P -0.755; Q -0.769; L -0.845; M -0.986; S -0.622; W -1.11; I -1.08; G -0.727; K -0.58; H -0.286; D -0.633; Y -1.02; F -0.895
R49: N 0.04; A 0.019; W -0.132; V 0.006; Y -0.201; D 0.145; L -0.101; Q 0.034; E -0.108; T 0.043; P -0.187; G 0.069; I 0.016; M -0.101; F -0.089; H 0.047; S -0.095
L46: A -0.033; Q -0.019; T -0.02; I -0.012; P -0.426; N 0.211; E -0.092; W -0.266; R 0.008; D -0.252; Y -0.061; K 0.079; V 0.106
C47: F -0.803; I -0.697; A -0.804; V -0.605; N -0.559; G -0.652; H -0.36; L -0.639; Q -0.627; Y -0.78; K -0.503; R -0.664; W -0.766; E -0.606; T -0.732; P -0.552; S -0.598
P48: W -0.349; C -0.815; A -0.155; N -0.54; L -0.622; G -0.284; E -0.042; R -0.352; I -0.941; M -0.363; T -0.27; V -0.504; F -0.717; K -0.397; H -0.278; Y -0.567; D -0.102; S -0.21
T51: H -0.169; Y -0.171; W -0.12; M -0.097; D 0.152; G -0.136; R -0.073; C -0.151; N 0.12; V -0.048; P 0.031; Q -0.03; S 0.013; E 0.074; K -0.051; L -0.003; F 0.048
E44: V -0.143; W -0.413; A -0.07; G 0.03; K 0.064; I -0.119; Q -0.104; R -0.001; D -0.156; C -0.21; M -0.084; F -0.152; T -0.122; L -0.024; N 0.095; H -0.057; S -0.018
W45: F -0.085; Y -0.357; H -0.489; I -0.533; V -0.431; E -0.517; R -0.446; S -0.443; A -0.517; Q -0.509; P -0.503; K -0.549; N -0.428; M -0.398; G -0.487; D -0.473; C -0.616; T -0.43; L -0.591

— the Human Domainome abundance scans (Beltran et al. 2025)
